Reference: PMC3586674

Target: T1, ECudA (Entamoeba histolytica, UniProt Q24859 1-283)
T1 sequence: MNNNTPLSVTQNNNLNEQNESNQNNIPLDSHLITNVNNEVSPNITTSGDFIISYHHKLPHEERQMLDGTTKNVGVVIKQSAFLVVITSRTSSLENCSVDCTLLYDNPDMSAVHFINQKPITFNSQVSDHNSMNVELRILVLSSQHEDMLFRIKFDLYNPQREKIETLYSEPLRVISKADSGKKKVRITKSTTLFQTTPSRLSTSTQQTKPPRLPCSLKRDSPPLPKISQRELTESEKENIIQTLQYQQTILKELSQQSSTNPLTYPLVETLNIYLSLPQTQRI
Assay: competition

B1: WT 20-mer (dsDNA)
DNA 1: CACTGTGAGAATTTTCTATT
DNA 2: AATAGAAAATTCTCACAGTG
binding result: binds
